Results on seven molecules are retold here after US8247535B2, “Directed evolution of GRG31 EPSP synthase enzyme” (Athenix Corp., priority 2008, dated 2012).

The subject of data set [1] is GRG31 EPSP synthase. As to the kind of experiment: Extract prescreens of library clones at a few glyphosate and PEP concentrations. The class given is biochemical. To be noted: extracts; for activity in glyphosate prescreen: 0, 1, and 2 mM glyphosate, among 31 resistant clones. As to the method: Library 1 was cloned into pAX3625 and 130,000 clones were plated onto plates containing 50 mM glyphosate. […] Extracts were prepared and assessed for glyphosate resistance by assaying activity in the presence of a small number of glyphosate concentrations (0, 1, and 2 mM glyphosate).
Extracts from these six clones were assayed for activity at a range of PEP concentrations (0, 20, 50, and 100 μM PEP).
One hundred and fifteen thousand (115,000) clones were plated onto plates containing 50 mM glyphosate and 384 glyphosate resistant clones were picked for sequencing. […] A Ki assessment of the unique clones was carried out by testing activity at 0 and 0.2 mM glyphosate. […] An assessment of the Km of protein encoded by these nine clones was performed by comparing activity at 0, 20, and 50 μM PEP.

Data set [2] addresses GRG31 EPSP synthase. Put plainly: Kinetic analysis of GRG31 variants (Ki for glyphosate, Km for PEP, Vmax). Format: biochemical. More on the design: Vmax: unit not given here. To be noted: for Ki: Ki for glyphosate, calculated from plot of Km(app) vs. glyphosate concentration; for Km: Km for PEP; for Vmax: unit not given. The protocol:
GRG31 variants L3P2b11, L3P2c11 and L4e11, and L5e3 were characterized by enzymatic assays as described herein, and compared to the native GRG31 enzyme. For each enzyme the apparent Km (Km(app)) was determined at each of several glyphosate concentrations, and a plot of Km(app) vs. glyphosate concentration was used to calculate the Ki for each enzyme. The thermostability for each enzyme was assessed by incubating the enzyme at 37° C. for 16 hours, and then quantifying the enzymatic activity remaining (as Vmax) vs. control enzyme that was incubated at 4° C.

B1: GRG31pm3a11: GRG31 Q-loop library 1 variant, SEQ ID NO:7 (protein)
chain: MNQQVITLTHPSKKIQGTVQLTGSKSESNRALIIQSLSKGQVEIANLSEAADTVTLNRVLQIASDPKPGFNTIDCGNAGTSVRFLTGFLNLVKGNFILTGTERMQQRPIGILVDAMKEIGADIHYDKKVGYPPLKIEGGLFQEKDRVKIKGNISSQYISALLLIAPALKKGLTLEIEGELTSRPYVSMTLDMLKSVGIQHEWKNNAIKIAPQAFEKQTIYVEPDWSAASYWYAIAALADANASIVLPGLRKNSLQGDIAIISIMEHFGVQSSFESDGLHLNKKVIGSDVSLFNFKECPDLAQTVVVVAAALKRDVSFTGLETLKIKETDRIAALQKEIAKFGAELIEDGDTYHLKTAQVYQPEEVTFDTYEDHRMAMAFAPLALVFDQIKIAEPQVVEKSYPDFWNHLQAQAFVIE
modifications: GRG31 variant (clone GRG31pm3a11)
With B1, the “activity in glyphosate prescreen” value in data set [1] was “best activity”. The “activity at low PEP concentrations” value in data set [1] (0, 20, 50, and 100 μM PEP, among six clones) is “best activity at low PEP concentrations”.

B2: L3P2c11 + 6e7: GRG31 variant Y88→F; E215→K, SEQ ID NO:21 (protein)
chain: MNQQVITLTHPSKKIQGTVQLTGSKSESNRALIIQSLSKGQVEIANLSEAADTVTLNRVLQIASDPKPGFNTIDIGPAGTAMRFLTAFLNLVKGNFILTGTERMQQRPIGILVDAMKEIGADIHYDKKVGYPPLKIEGGLFQEKDRVKIKGNISSQYISALLLIAPALKKGLTLEIEGELTSRPYVSMTLDMLKSVGIQHEWKNNAIKIAPQAFKKQTIYVEPDWSAASYWYAIAALADANASIVLPGLRKNSLQGDIAIISIMEHFGVQSSFESDGLHLNKKVIGSDVSLFNFKECPDLAQTVVVVAAALKRDVSFTGLETLKIKETDRIAALQKEIAKFGAELIEDGDTYHLKTAQVYQPEEVTFDTYEDHRMAMAFAPLALVFDQIKIAEPQVVEKSYPDFWNHLQAQAFVIE
modifications: GRG31 variant (L3P2c11+6e7)
On to B2, for which, in data set [2], the Ki was 416 µM, the Km is 8.6 µM and the Vmax is 23.5. In addition, the “Vmax improvement over the GRG31(L3P2c11) protein” value in data set [2] (relative to GRG31(L3P2c11), in words) is listed as “about four to five-fold”. Also, in data set [2] (relative to GRG31, in words), the “Vmax relative to GRG31” value is listed as “approximately equal to that of GRG31”, the “improvement in Ki for glyphosate relative to GRG31” value is recorded as “more than four-fold” and the “improvement in Km for PEP relative to GRG31” value is “approximately two-fold”.

B3: L3P2b11 + 6e7: GRG31 variant P77→Q; A81→S; M82→L; Y88→F; E215→K, SEQ ID NO:22 (protein)
chain: MNQQVITLTHPSKKIQGTVQLTGSKSESNRALIIQSLSKGQVEIANLSEAADTVTLNRVLQIASDPKPGFNTIDIGQAGTSLRFLTAFLNLVKGNFILTGTERMQQRPIGILVDAMKEIGADIHYDKKVGYPPLKIEGGLFQEKDRVKIKGNISSQYISALLLIAPALKKGLTLEIEGELTSRPYVSMTLDMLKSVGIQHEWKNNAIKIAPQAFKKQTIYVEPDWSAASYWYAIAALADANASIVLPGLRKNSLQGDIAIISIMEHFGVQSSFESDGLHLNKKVIGSDVSLFNFKECPDLAQTVVVVAAALKRDVSFTGLETLKIKETDRIAALQKEIAKFGAELIEDGDTYHLKTAQVYQPEEVTFDTYEDHRMAMAFAPLALVFDQIKIAEPQVVEKSYPDFWNHLQAQAFVIE
modifications: GRG31 variant (L3P2b11+6e)
With B3, in data set [2], the Ki is 1010 µM, the Km worked out at 10.3 µM and the Vmax was found to be 0.86.

B4: L3P2b11 + triple EK: GRG31 variant P77→Q; A81→S; M82→L; Y88→F; N95→S, A206→V; E215→K, SEQ ID NO:24 (protein)
chain: MNQQVITLTHPSKKIQGTVQLTGSKSESNRALIIQSLSKGQVEIANLSEAADTVTLNRVLQIASDPKPGFNTIDIGQAGTSLRFLTAFLNLVKGSFILTGTERMQQRPIGILVDAMKEIGADIHYDKKVGYPPLKIEGGLFQEKDRVKIKGNISSQYISALLLIAPALKKGLTLEIEGELTSRPYVSMTLDMLKSVGIQHEWKNNVIKIAPQAFKKQTIYVEPDWSAASYWYAIAALADANASIVLPGLRKNSLQGDIAIISIMEHFGVQSSFESDGLHLNKKVIGSDVSLFNFKECPDLAQTVVVVAAALKRDVSFTGLETLKIKETDRIAALQKEIAKFGAELIEDGDTYHLKTAQVYQPEEVTFDTYEDHRMAMAFAPLALVFDQIKIAEPQVVEKSYPDFWNHLQAQAFVIE
modifications: GRG31 variant (L3P2b11+triple EK)
B4: in data set [2], the Ki is 606 µM, the Km turned out to be 12.3 µM and the Vmax was 0.72.

B5: L3P2b11 + 6b2: GRG31 variant P77→Q; A81→S; M82→L; Y88→F; N95→S, A206→V, SEQ ID NO:26 (protein)
chain: MNQQVITLTHPSKKIQGTVQLTGSKSESNRALIIQSLSKGQVEIANLSEAADTVTLNRVLQIASDPKPGFNTIDIGQAGTSLRFLTAFLNLVKGSFILTGTERMQQRPIGILVDAMKEIGADIHYDKKVGYPPLKIEGGLFQEKDRVKIKGNISSQYISALLLIAPALKKGLTLEIEGELTSRPYVSMTLDMLKSVGIQHEWKNNVIKIAPQAFEKQTIYVEPDWSAASYWYAIAALADANASIVLPGLRKNSLQGDIAIISIMEHFGVQSSFESDGLHLNKKVIGSDVSLFNFKECPDLAQTVVVVAAALKRDVSFTGLETLKIKETDRIAALQKEIAKFGAELIEDGDTYHLKTAQVYQPEEVTFDTYEDHRMAMAFAPLALVFDQIKIAEPQVVEKSYPDFWNHLQAQAFVIE
modifications: GRG31 variant (L3P2b11+6b2)
Consider B5, for which, in data set [2], the Ki was 628 µM, the Km is 8 µM and the Vmax is reported as 0.59.

B6: GRG31pm3a6: GRG31 Q-loop library 1 variant, SEQ ID NO:8 (protein)
chain: MNQQVITLTHPSKKIQGTVQLTGSKSESNRALIIQSLSKGQVEIANLSEAADTVTLNRVLQIASDPKPGFNTIDCGNAGTSMRFLTAVLNLVKGNFILTGTERMQQRPIGILVDAMKEIGADIHYDKKVGYPPLKIEGGLFQEKDRVKIKGNISSQYISALLLIAPALKKGLTLEIEGELTSRPYVSMTLDMLKSVGIQHEWKNNAIKIAPQAFEKQTIYVEPDWSAASYWYAIAALADANASIVLPGLRKNSLQGDIAIISIMEHFGVQSSFESDGLHLNKKVIGSDVSLFNFKECPDLAQTVVVVAAALKRDVSFTGLETLKIKETDRIAALQKEIAKFGAELIEDGDTYHLKTAQVYQPEEVTFDTYEDHRMAMAFAPLALVFDQIKIAEPQVVEKSYPDFWNHLQAQAFVIE
modifications: GRG31 variant (clone GRG31pm3a6)
Regarding B6, in data set [1], the “activity in glyphosate prescreen” value is “best activity”.

B7: L4e11: GRG31 variant I75→C; A78→S; Y88→H, SEQ ID NO:16 (protein)
chain: MNQQVITLTHPSKKIQGTVQLTGSKSESNRALIIQSLSKGQVEIANLSEAADTVTLNRVLQIASDPKPGFNTIDCGPSGTAMRFLTAHLNLVKGNFILTGTERMQQRPIGILVDAMKEIGADIHYDKKVGYPPLKIEGGLFQEKDRVKIKGNISSQYISALLLIAPALKKGLTLEIEGELTSRPYVSMTLDMLKSVGIQHEWKNNAIKIAPQAFEKQTIYVEPDWSAASYWYAIAALADANASIVLPGLRKNSLQGDIAIISIMEHFGVQSSFESDGLHLNKKVIGSDVSLFNFKECPDLAQTVVVVAAALKRDVSFTGLETLKIKETDRIAALQKEIAKFGAELIEDGDTYHLKTAQVYQPEEVTFDTYEDHRMAMAFAPLALVFDQIKIAEPQVVEKSYPDFWNHLQAQAFVIE
modifications: GRG31 variant (clone 4e11)
In the case of B7, in data set [2], the Ki is 389 µM, the Km stood at 12.4 µM and the Vmax is given as 3.5. Moreover, the “improvement in Ki for glyphosate relative to GRG31” value in data set [2] (relative to GRG31, in words) is “improved”.
